B1: Speckle-type POZ protein (Homo sapiens), O43791 (parent)
chain: MSRVPSPPPPAEMSSGPVAESWCYTQIKVVKFSYMWTINNFSFCREEMGEVIKSSTFSSGANDKLKWCLRVNPKGLDEESKDYLSLYLLLVSCPKSEVRAKFKFSILNAKGEETKAMESQRAYRFVQGKDWGFKKFIRRDFLLDEANGLLPDDKLTLFCEVSVVQDSVNISGQNTMNMVKVPECRLADELGGLWENSRFTDCCLCVAGQEFQAHKAILAARSPVFSAMFEHEMEESKKNRVEINDVEPEVFKEMMCFIYTGKAPNLDKMADDLLAAADKYALERLKVMCEDALCSNLSVENAAEILILADLHSADQLKTQAVDFINYHASDVLETSGWKSMVVSHPHLVAEAYRSLASAQCPFLGPPRKRLKQS

Variants of: B1
Conditions: with cdc27_human CDC27, P30260
Chain of cdc27_human CDC27, P30260 (P30260 whole entry): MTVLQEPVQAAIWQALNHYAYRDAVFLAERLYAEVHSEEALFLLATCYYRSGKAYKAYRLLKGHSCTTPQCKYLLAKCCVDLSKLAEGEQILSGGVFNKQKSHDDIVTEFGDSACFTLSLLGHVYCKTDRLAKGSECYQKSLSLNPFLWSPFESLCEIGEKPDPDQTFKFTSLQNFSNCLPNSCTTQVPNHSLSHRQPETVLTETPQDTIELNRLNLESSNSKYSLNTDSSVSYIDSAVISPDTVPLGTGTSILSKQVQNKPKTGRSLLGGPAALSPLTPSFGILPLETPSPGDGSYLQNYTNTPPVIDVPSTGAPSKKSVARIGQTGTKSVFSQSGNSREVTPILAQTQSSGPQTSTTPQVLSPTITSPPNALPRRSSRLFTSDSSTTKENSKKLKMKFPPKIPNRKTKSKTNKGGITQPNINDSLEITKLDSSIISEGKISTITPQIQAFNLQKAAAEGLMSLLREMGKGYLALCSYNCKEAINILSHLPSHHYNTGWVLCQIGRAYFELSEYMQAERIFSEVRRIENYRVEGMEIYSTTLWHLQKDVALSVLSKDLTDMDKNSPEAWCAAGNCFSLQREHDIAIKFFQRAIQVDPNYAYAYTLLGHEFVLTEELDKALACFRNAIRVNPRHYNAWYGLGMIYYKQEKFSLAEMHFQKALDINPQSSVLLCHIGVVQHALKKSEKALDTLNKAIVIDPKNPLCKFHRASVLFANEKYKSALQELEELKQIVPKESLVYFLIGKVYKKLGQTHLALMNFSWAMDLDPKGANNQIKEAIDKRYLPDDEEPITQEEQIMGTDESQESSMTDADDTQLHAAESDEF

Variant | effect of a mutation on the interaction
MSRVPSPPPPAEMSSGPVAESWCYTQIKVVKFSYMWTINNFSFCREEMGEVIKSSTFSSGANDKLKWCLRVNPKGLDEESKDYLSLCLLLVSCPKSEVRAKFKFSILNAKGEETKAMESQRAYRFVQGKDWGFKKFIRRDFLLDEANGLLPDDKLTLFCEVSVVQDSVNISGQNTMNMVKVPECRLADELGGLWENSRFTDCCLCVAGQEFQAHKAILAARSPVFSAMFEHEMEESKKNRVEINDVEPEVFKEMMCFIYTGKAPNLDKMADDLLAAADKYALERLKVMCEDALCSNLSVENAAEILILADLHSADQLKTQAVDFINYHASDVLETSGWKSMVVSHPHLVAEAYRSLASAQCPFLGPPRKRLKQS [Y87C] | with no effect

Variants of: B1
Conditions: with cdc73_human CDC73, Q6P1J9

Variant | effect of a mutation on the interaction
MSRVPSPPPPAEMSSGPVAESWCYTQIKVVKFSYMWTINNFSFCREEMGEVIKSSTFSSGANDKLKWCLRVNPKGLDEESKDYLSLCLLLVSCPKSEVRAKFKFSILNAKGEETKAMESQRAYRFVQGKDWGFKKFIRRDFLLDEANGLLPDDKLTLFCEVSVVQDSVNISGQNTMNMVKVPECRLADELGGLWENSRFTDCCLCVAGQEFQAHKAILAARSPVFSAMFEHEMEESKKNRVEINDVEPEVFKEMMCFIYTGKAPNLDKMADDLLAAADKYALERLKVMCEDALCSNLSVENAAEILILADLHSADQLKTQAVDFINYHASDVLETSGWKSMVVSHPHLVAEAYRSLASAQCPFLGPPRKRLKQS [Y87C] | with no effect

Variants of: B1
Conditions: with cdk4_human CDK4, P11802
Chain of cdk4_human CDK4, P11802 (P11802 whole entry): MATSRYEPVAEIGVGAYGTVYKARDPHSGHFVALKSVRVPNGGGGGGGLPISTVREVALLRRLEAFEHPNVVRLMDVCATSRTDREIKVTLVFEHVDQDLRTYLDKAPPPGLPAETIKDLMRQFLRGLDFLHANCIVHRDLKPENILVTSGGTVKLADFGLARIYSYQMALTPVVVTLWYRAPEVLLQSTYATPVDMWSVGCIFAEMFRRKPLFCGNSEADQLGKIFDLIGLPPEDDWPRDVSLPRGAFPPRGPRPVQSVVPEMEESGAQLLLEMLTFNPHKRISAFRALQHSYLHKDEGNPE

Variant | effect of a mutation on the interaction
MSRVPSPPPPAEMSSGPVAESWCYTQIKVVKFSYMWTINNFSFCREEMGEVIKSSTFSSGANDKLKWCLRVNPKGLDEESKDYLSLCLLLVSCPKSEVRAKFKFSILNAKGEETKAMESQRAYRFVQGKDWGFKKFIRRDFLLDEANGLLPDDKLTLFCEVSVVQDSVNISGQNTMNMVKVPECRLADELGGLWENSRFTDCCLCVAGQEFQAHKAILAARSPVFSAMFEHEMEESKKNRVEINDVEPEVFKEMMCFIYTGKAPNLDKMADDLLAAADKYALERLKVMCEDALCSNLSVENAAEILILADLHSADQLKTQAVDFINYHASDVLETSGWKSMVVSHPHLVAEAYRSLASAQCPFLGPPRKRLKQS [Y87C] | with no effect

Variants of: B1
Conditions: with cdk6_human CDK6, Q00534
Chain of cdk6_human CDK6, Q00534 (Q00534 whole entry): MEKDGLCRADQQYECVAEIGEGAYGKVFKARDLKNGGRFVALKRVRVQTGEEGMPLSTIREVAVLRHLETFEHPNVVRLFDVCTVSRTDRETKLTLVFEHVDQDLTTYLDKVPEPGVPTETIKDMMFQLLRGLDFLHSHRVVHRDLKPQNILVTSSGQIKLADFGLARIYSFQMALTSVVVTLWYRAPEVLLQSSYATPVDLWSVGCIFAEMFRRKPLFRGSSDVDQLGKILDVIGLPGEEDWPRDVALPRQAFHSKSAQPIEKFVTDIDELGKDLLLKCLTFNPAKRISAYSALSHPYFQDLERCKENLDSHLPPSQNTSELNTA

Variant | effect of a mutation on the interaction
MSRVPSPPPPAEMSSGPVAESWCYTQIKVVKFSYMWTINNFSFCREEMGEVIKSSTFSSGANDKLKWCLRVNPKGLDEESKDYLSLCLLLVSCPKSEVRAKFKFSILNAKGEETKAMESQRAYRFVQGKDWGFKKFIRRDFLLDEANGLLPDDKLTLFCEVSVVQDSVNISGQNTMNMVKVPECRLADELGGLWENSRFTDCCLCVAGQEFQAHKAILAARSPVFSAMFEHEMEESKKNRVEINDVEPEVFKEMMCFIYTGKAPNLDKMADDLLAAADKYALERLKVMCEDALCSNLSVENAAEILILADLHSADQLKTQAVDFINYHASDVLETSGWKSMVVSHPHLVAEAYRSLASAQCPFLGPPRKRLKQS [Y87C] | with no effect

Variants of: B1
Conditions: with cdn2c_human CDKN2C

Variant | effect of a mutation on the interaction
MSRVPSPPPPAEMSSGPVAESWCYTQIKVVKFSYMWTINNFSFCREEMGEVIKSSTFSSGANDKLKWCLRVNPKGLDEESKDYLSLCLLLVSCPKSEVRAKFKFSILNAKGEETKAMESQRAYRFVQGKDWGFKKFIRRDFLLDEANGLLPDDKLTLFCEVSVVQDSVNISGQNTMNMVKVPECRLADELGGLWENSRFTDCCLCVAGQEFQAHKAILAARSPVFSAMFEHEMEESKKNRVEINDVEPEVFKEMMCFIYTGKAPNLDKMADDLLAAADKYALERLKVMCEDALCSNLSVENAAEILILADLHSADQLKTQAVDFINYHASDVLETSGWKSMVVSHPHLVAEAYRSLASAQCPFLGPPRKRLKQS [Y87C] | with no effect

Variants of: B1
Conditions: with chd1l_human CHD1L

Variant | effect of a mutation on the interaction
MSRVPSPPPPAEMSSGPVAESWCYTQIKVVKFSYMWTINNFSFCREEMGEVIKSSTFSSGANDKLKWCLRVNPKGLDEESKDYLSLCLLLVSCPKSEVRAKFKFSILNAKGEETKAMESQRAYRFVQGKDWGFKKFIRRDFLLDEANGLLPDDKLTLFCEVSVVQDSVNISGQNTMNMVKVPECRLADELGGLWENSRFTDCCLCVAGQEFQAHKAILAARSPVFSAMFEHEMEESKKNRVEINDVEPEVFKEMMCFIYTGKAPNLDKMADDLLAAADKYALERLKVMCEDALCSNLSVENAAEILILADLHSADQLKTQAVDFINYHASDVLETSGWKSMVVSHPHLVAEAYRSLASAQCPFLGPPRKRLKQS [Y87C] | with no effect

Variants of: B1
Conditions: with chd2_human CHD2, O14647
Chain of chd2_human CHD2, O14647 (O14647 whole entry): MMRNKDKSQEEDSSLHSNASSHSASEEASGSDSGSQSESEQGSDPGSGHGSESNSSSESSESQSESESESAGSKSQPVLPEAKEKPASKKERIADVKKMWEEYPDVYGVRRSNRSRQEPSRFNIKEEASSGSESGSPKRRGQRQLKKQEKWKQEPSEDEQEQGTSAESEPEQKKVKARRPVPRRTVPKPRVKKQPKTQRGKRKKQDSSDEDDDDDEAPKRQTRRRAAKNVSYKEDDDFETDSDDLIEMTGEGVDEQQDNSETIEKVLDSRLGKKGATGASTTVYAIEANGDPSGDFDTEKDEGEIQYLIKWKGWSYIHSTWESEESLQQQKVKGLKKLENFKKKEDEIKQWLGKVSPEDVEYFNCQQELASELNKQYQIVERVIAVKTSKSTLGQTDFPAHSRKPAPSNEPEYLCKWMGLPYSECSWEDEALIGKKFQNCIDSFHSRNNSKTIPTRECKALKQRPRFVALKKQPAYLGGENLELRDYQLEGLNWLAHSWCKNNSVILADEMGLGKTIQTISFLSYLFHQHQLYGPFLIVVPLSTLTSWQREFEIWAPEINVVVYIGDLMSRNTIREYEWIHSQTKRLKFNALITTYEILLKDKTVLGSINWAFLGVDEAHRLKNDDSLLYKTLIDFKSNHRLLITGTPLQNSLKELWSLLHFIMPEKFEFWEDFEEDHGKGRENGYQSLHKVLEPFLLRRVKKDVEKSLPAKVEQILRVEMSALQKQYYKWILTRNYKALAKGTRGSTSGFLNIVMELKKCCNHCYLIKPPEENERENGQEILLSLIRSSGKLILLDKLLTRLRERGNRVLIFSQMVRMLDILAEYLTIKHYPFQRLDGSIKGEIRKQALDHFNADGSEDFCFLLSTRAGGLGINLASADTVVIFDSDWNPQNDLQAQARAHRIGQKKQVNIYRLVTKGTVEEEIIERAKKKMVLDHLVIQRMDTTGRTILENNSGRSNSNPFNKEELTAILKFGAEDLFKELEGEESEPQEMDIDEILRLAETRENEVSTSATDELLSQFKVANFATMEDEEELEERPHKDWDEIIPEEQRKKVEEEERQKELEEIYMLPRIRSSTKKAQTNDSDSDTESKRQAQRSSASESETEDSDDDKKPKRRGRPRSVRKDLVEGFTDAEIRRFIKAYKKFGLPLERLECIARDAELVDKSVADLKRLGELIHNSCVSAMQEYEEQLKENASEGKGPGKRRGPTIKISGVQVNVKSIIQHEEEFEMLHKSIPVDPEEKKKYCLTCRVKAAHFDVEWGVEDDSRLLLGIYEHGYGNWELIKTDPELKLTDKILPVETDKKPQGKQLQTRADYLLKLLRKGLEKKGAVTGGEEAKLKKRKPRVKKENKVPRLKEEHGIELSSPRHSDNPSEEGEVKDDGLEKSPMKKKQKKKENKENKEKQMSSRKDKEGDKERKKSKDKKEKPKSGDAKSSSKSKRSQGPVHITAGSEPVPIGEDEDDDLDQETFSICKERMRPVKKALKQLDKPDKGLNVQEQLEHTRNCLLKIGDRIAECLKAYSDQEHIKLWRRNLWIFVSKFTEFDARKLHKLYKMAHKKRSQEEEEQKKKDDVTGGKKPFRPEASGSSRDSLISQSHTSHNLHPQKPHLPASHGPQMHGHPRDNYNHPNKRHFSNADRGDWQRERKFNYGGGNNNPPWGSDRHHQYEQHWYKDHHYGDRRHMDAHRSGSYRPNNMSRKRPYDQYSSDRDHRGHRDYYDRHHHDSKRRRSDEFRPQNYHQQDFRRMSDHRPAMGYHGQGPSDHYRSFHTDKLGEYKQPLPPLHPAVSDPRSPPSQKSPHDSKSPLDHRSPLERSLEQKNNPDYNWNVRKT

Variant | effect of a mutation on the interaction
MSRVPSPPPPAEMSSGPVAESWCYTQIKVVKFSYMWTINNFSFCREEMGEVIKSSTFSSGANDKLKWCLRVNPKGLDEESKDYLSLCLLLVSCPKSEVRAKFKFSILNAKGEETKAMESQRAYRFVQGKDWGFKKFIRRDFLLDEANGLLPDDKLTLFCEVSVVQDSVNISGQNTMNMVKVPECRLADELGGLWENSRFTDCCLCVAGQEFQAHKAILAARSPVFSAMFEHEMEESKKNRVEINDVEPEVFKEMMCFIYTGKAPNLDKMADDLLAAADKYALERLKVMCEDALCSNLSVENAAEILILADLHSADQLKTQAVDFINYHASDVLETSGWKSMVVSHPHLVAEAYRSLASAQCPFLGPPRKRLKQS [Y87C] | with no effect

Variants of: B1
Conditions: with chk2_human CHEK2, O96017
Chain of chk2_human CHEK2, O96017 (O96017 whole entry): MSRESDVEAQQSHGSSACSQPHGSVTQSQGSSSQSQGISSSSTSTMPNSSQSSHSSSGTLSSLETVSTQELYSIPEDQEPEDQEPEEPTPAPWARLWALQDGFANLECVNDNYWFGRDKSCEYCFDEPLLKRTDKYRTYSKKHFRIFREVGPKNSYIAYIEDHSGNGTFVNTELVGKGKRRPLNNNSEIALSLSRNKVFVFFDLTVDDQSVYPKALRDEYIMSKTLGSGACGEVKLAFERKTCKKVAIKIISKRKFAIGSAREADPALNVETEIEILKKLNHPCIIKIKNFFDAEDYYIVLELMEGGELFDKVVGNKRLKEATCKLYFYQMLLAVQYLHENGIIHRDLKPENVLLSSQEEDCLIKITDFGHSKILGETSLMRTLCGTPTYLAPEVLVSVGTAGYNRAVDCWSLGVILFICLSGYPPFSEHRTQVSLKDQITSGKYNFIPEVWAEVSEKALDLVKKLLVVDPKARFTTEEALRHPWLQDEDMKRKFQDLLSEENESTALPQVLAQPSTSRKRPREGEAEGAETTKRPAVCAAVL

Variant | effect of a mutation on the interaction
MSRVPSPPPPAEMSSGPVAESWCYTQIKVVKFSYMWTINNFSFCREEMGEVIKSSTFSSGANDKLKWCLRVNPKGLDEESKDYLSLCLLLVSCPKSEVRAKFKFSILNAKGEETKAMESQRAYRFVQGKDWGFKKFIRRDFLLDEANGLLPDDKLTLFCEVSVVQDSVNISGQNTMNMVKVPECRLADELGGLWENSRFTDCCLCVAGQEFQAHKAILAARSPVFSAMFEHEMEESKKNRVEINDVEPEVFKEMMCFIYTGKAPNLDKMADDLLAAADKYALERLKVMCEDALCSNLSVENAAEILILADLHSADQLKTQAVDFINYHASDVLETSGWKSMVVSHPHLVAEAYRSLASAQCPFLGPPRKRLKQS [Y87C] | with no effect

Variants of: B1
Conditions: with ch3l1_human CHI3L1, P36222
Chain of ch3l1_human CHI3L1, P36222 (P36222 whole entry): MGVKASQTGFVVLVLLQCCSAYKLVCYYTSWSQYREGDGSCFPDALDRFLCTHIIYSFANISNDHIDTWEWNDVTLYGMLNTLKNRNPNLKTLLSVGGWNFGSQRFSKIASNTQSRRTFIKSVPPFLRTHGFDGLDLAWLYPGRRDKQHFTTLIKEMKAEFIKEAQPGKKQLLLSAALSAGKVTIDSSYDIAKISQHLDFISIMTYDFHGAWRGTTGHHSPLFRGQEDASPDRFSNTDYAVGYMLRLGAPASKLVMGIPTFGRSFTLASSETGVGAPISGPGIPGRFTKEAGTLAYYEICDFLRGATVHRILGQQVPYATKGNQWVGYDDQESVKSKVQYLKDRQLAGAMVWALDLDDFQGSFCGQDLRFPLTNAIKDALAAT

Variant | effect of a mutation on the interaction
MSRVPSPPPPAEMSSGPVAESWCYTQIKVVKFSYMWTINNFSFCREEMGEVIKSSTFSSGANDKLKWCLRVNPKGLDEESKDYLSLCLLLVSCPKSEVRAKFKFSILNAKGEETKAMESQRAYRFVQGKDWGFKKFIRRDFLLDEANGLLPDDKLTLFCEVSVVQDSVNISGQNTMNMVKVPECRLADELGGLWENSRFTDCCLCVAGQEFQAHKAILAARSPVFSAMFEHEMEESKKNRVEINDVEPEVFKEMMCFIYTGKAPNLDKMADDLLAAADKYALERLKVMCEDALCSNLSVENAAEILILADLHSADQLKTQAVDFINYHASDVLETSGWKSMVVSHPHLVAEAYRSLASAQCPFLGPPRKRLKQS [Y87C] | with no effect

Variants of: B1
Conditions: with csf1r_human CSF1R

Variant | effect of a mutation on the interaction
MSRVPSPPPPAEMSSGPVAESWCYTQIKVVKFSYMWTINNFSFCREEMGEVIKSSTFSSGANDKLKWCLRVNPKGLDEESKDYLSLCLLLVSCPKSEVRAKFKFSILNAKGEETKAMESQRAYRFVQGKDWGFKKFIRRDFLLDEANGLLPDDKLTLFCEVSVVQDSVNISGQNTMNMVKVPECRLADELGGLWENSRFTDCCLCVAGQEFQAHKAILAARSPVFSAMFEHEMEESKKNRVEINDVEPEVFKEMMCFIYTGKAPNLDKMADDLLAAADKYALERLKVMCEDALCSNLSVENAAEILILADLHSADQLKTQAVDFINYHASDVLETSGWKSMVVSHPHLVAEAYRSLASAQCPFLGPPRKRLKQS [Y87C] | with no effect

Variants of: B1
Conditions: with ctla4_human CTLA4, P16410

Variant | effect of a mutation on the interaction
MSRVPSPPPPAEMSSGPVAESWCYTQIKVVKFSYMWTINNFSFCREEMGEVIKSSTFSSGANDKLKWCLRVNPKGLDEESKDYLSLCLLLVSCPKSEVRAKFKFSILNAKGEETKAMESQRAYRFVQGKDWGFKKFIRRDFLLDEANGLLPDDKLTLFCEVSVVQDSVNISGQNTMNMVKVPECRLADELGGLWENSRFTDCCLCVAGQEFQAHKAILAARSPVFSAMFEHEMEESKKNRVEINDVEPEVFKEMMCFIYTGKAPNLDKMADDLLAAADKYALERLKVMCEDALCSNLSVENAAEILILADLHSADQLKTQAVDFINYHASDVLETSGWKSMVVSHPHLVAEAYRSLASAQCPFLGPPRKRLKQS [Y87C] | with no effect

Variants of: B1
Conditions: with cul3_human CUL3, Q13618

Variant | effect of a mutation on the interaction
MSRVPSPPPPAEMSSGPVAESWCYTQIKVVKFSYMWTINNFSFCREEMGEVIKSSTFSSGANDKLKWCLRVNPKGLDEESKDYLSLCLLLVSCPKSEVRAKFKFSILNAKGEETKAMESQRAYRFVQGKDWGFKKFIRRDFLLDEANGLLPDDKLTLFCEVSVVQDSVNISGQNTMNMVKVPECRLADELGGLWENSRFTDCCLCVAGQEFQAHKAILAARSPVFSAMFEHEMEESKKNRVEINDVEPEVFKEMMCFIYTGKAPNLDKMADDLLAAADKYALERLKVMCEDALCSNLSVENAAEILILADLHSADQLKTQAVDFINYHASDVLETSGWKSMVVSHPHLVAEAYRSLASAQCPFLGPPRKRLKQS [Y87C] | with no effect

Variants of: B1
Conditions: with cul4b_human CUL4B

Variant | effect of a mutation on the interaction
MSRVPSPPPPAEMSSGPVAESWCYTQIKVVKFSYMWTINNFSFCREEMGEVIKSSTFSSGANDKLKWCLRVNPKGLDEESKDYLSLCLLLVSCPKSEVRAKFKFSILNAKGEETKAMESQRAYRFVQGKDWGFKKFIRRDFLLDEANGLLPDDKLTLFCEVSVVQDSVNISGQNTMNMVKVPECRLADELGGLWENSRFTDCCLCVAGQEFQAHKAILAARSPVFSAMFEHEMEESKKNRVEINDVEPEVFKEMMCFIYTGKAPNLDKMADDLLAAADKYALERLKVMCEDALCSNLSVENAAEILILADLHSADQLKTQAVDFINYHASDVLETSGWKSMVVSHPHLVAEAYRSLASAQCPFLGPPRKRLKQS [Y87C] | with no effect

Variants of: B1
Conditions: with daxx_human DAXX

Variant | effect of a mutation on the interaction
MSRVPSPPPPAEMSSGPVAESWCYTQIKVVKFSYMWTINNFSFCREEMGEVIKSSTFSSGANDKLKWCLRVNPKGLDEESKDYLSLCLLLVSCPKSEVRAKFKFSILNAKGEETKAMESQRAYRFVQGKDWGFKKFIRRDFLLDEANGLLPDDKLTLFCEVSVVQDSVNISGQNTMNMVKVPECRLADELGGLWENSRFTDCCLCVAGQEFQAHKAILAARSPVFSAMFEHEMEESKKNRVEINDVEPEVFKEMMCFIYTGKAPNLDKMADDLLAAADKYALERLKVMCEDALCSNLSVENAAEILILADLHSADQLKTQAVDFINYHASDVLETSGWKSMVVSHPHLVAEAYRSLASAQCPFLGPPRKRLKQS [Y87C] | with no effect

Variants of: B1
Conditions: with ddx5_human DDX5, P17844
Chain of ddx5_human DDX5, P17844 (P17844 whole entry): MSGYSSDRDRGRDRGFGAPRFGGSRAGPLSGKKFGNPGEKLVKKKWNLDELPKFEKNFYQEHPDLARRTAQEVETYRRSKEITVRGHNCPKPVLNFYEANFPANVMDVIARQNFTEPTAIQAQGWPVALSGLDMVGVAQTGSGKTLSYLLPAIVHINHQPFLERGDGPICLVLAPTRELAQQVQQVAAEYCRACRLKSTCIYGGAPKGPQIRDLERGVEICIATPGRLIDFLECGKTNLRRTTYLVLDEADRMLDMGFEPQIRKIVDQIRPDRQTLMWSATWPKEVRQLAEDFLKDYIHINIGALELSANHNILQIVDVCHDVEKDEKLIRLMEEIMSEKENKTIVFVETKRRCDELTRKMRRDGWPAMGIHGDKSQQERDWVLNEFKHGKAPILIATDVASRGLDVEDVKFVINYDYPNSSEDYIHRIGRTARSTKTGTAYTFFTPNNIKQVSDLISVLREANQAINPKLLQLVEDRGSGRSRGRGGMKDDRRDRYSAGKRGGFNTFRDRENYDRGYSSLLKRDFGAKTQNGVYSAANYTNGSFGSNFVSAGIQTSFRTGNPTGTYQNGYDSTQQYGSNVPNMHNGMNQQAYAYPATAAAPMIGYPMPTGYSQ

Variant | effect of a mutation on the interaction
MSRVPSPPPPAEMSSGPVAESWCYTQIKVVKFSYMWTINNFSFCREEMGEVIKSSTFSSGANDKLKWCLRVNPKGLDEESKDYLSLCLLLVSCPKSEVRAKFKFSILNAKGEETKAMESQRAYRFVQGKDWGFKKFIRRDFLLDEANGLLPDDKLTLFCEVSVVQDSVNISGQNTMNMVKVPECRLADELGGLWENSRFTDCCLCVAGQEFQAHKAILAARSPVFSAMFEHEMEESKKNRVEINDVEPEVFKEMMCFIYTGKAPNLDKMADDLLAAADKYALERLKVMCEDALCSNLSVENAAEILILADLHSADQLKTQAVDFINYHASDVLETSGWKSMVVSHPHLVAEAYRSLASAQCPFLGPPRKRLKQS [Y87C] | with no effect
